# Experimental data taken from the supplement of paper PMC9112550, “Optimization of the antimicrobial peptide Bac7 by deep mutational scanning” (BMC Biology, 2022).
# Tested on: Escherichia coli TOP10
# Experiment: shrunken log2 fold change of peptide-encoding DNA abundance (4.5 h post-induction vs induction); higher = less antimicrobial activity (less host growth inhibition)
# Settings: time post-induction: 4.5 h; library: site-saturation at positions 5, 18, 19, 20
# 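Also: peptides expressed intracellularly from a pBAD plasmid library in pooled LB shake-flask culture, induced with 0.3% L-arabinose, DNA abundance read by NGS, three biological replicates, DESeq2 with apeglm shrinkage.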
row,Sequence,shrunken log2 fold change
1,RRIRWRPPRLPRPRPRPLENPRP,0.0135
2,RRIRQRPPRLPRPRPRPAPVPRP,1.06
3,RRIRFRPPRLPRPRPRPIALPRP,-0.222
4,RRIRGRPPRLPRPRPRPYVSPRP,-0.203
5,RRIRWRPPRLPRPRPRPPYFPRP,-0.0123
6,RRIRLRPPRLPRPRPRPWSDPRP,-0.188
7,RRIRWRPPRLPRPRPRPCNAPRP,-0.0905
8,RRIRPRPPRLPRPRPRPSLQPRP,0.0128
9,RRIRIRPPRLPRPRPRPVTDPRP,-0.00257
10,RRIRRRPPRLPRPRPRPRKMPRP,0.163
11,RRIRMRPPRLPRPRPRPYQMPRP,0.119
12,RRIRCRPPRLPRPRPRPIPNPRP,0.0105
13,RRIRIRPPRLPRPRPRPQMGPRP,-0.0795
14,RRIRPRPPRLPRPRPRPNDHPRP,-0.386
15,RRIRWRPPRLPRPRPRPKLWPRP,1.06
16,RRIRVRPPRLPRPRPRPRMQPRP,0.123
17,RRIRYRPPRLPRPRPRPHEYPRP,-0.354
18,RRIRVRPPRLPRPRPRPNGSPRP,0.00532
19,RRIRIRPPRLPRPRPRPVPGPRP,-0.0459
20,RRIRMRPPRLPRPRPRPAFPPRP,-0.104
21,RRIRFRPPRLPRPRPRPNCAPRP,0.154
22,RRIRRRPPRLPRPRPRPKGEPRP,0.0115
23,RRIRIRPPRLPRPRPRPPLLPRP,0.444
24,RRIRTRPPRLPRPRPRPFTMPRP,-0.348
25,RRIRARPPRLPRPRPRPGSDPRP,0.536

row,Sequence,shrunken log2 fold change
1,RRIRLRPPRLPRPRPRPPDSPRP,0.0353
2,RRIRGRPPRLPRPRPRPTGKPRP,0.899
3,RRIRSRPPRLPRPRPRPKHAPRP,0.143
4,RRIRQRPPRLPRPRPRPGEQPRP,0.201
5,RRIRSRPPRLPRPRPRPGERPRP,0.637
6,RRIRQRPPRLPRPRPRPAADPRP,0.0593
7,RRIRCRPPRLPRPRPRPPEEPRP,0.301
8,RRIRWRPPRLPRPRPRPPMFPRP,-0.00833
9,RRIRKRPPRLPRPRPRPRHFPRP,0.0965
10,RRIRERPPRLPRPRPRPTKSPRP,-0.00427
11,RRIRDRPPRLPRPRPRPMWSPRP,-0.0459
12,RRIRPRPPRLPRPRPRPEKSPRP,0.264
13,RRIRVRPPRLPRPRPRPIDHPRP,-0.152
14,RRIRCRPPRLPRPRPRPRICPRP,0.183
15,RRIRARPPRLPRPRPRPMYCPRP,0.0455
16,RRIRCRPPRLPRPRPRPMDLPRP,-0.0384
17,RRIRGRPPRLPRPRPRPPLYPRP,0.459
18,RRIRVRPPRLPRPRPRPNAWPRP,0.0914
19,RRIRFRPPRLPRPRPRPVINPRP,-0.816
20,RRIRGRPPRLPRPRPRPMYRPRP,0.115
21,RRIRTRPPRLPRPRPRPHMHPRP,-0.543
22,RRIRLRPPRLPRPRPRPCKKPRP,-0.149
23,RRIRYRPPRLPRPRPRPNDKPRP,-0.892
24,RRIRQRPPRLPRPRPRPWNTPRP,-0.169
25,RRIRKRPPRLPRPRPRPCWRPRP,0.183
